The values that follow are results of earlier work, collected in patent US4786501A, “Cylindrical implants for the controlled release of growth hormones” (International Minerals & Chemical Corp., priority 1985, dated 1988).

One data set has as its system cows. The note with it: field trials, Machlin 1973.
The subject of the next data set is young swine. The note with it: field trials.

B1: BGH: bovine growth hormone purified from pituitary glands, protein containing 191 amino acid residues (protein, UniProt P01246 27-217, looked up)
Somatotropin: AFPAMSLSGLFANAVLRAQHLHQLAADTFKEFERTYIPEGQRYSIQNTQVAFCFSETIPAPTGKNEAQQKSDLELLRISLLLIQSWLGPLQFLSRVFTNSLVFGTSDRVYEKLKDLEEGILALMRELEDGTPRAGQILKQTYDKFDTNMRSDDALLKNYGLLSCFRKDLHKTETYLRVMKCRRFGEASCAF
Regarding B1, in the data set on cows, the feed-to-milk conversion entry is listed as “improved feed-to-milk conversion” and the milk production result is “increased milk production”.

B2: native PGH: native porcine growth hormone, protein containing 191 amino acid residues (protein, UniProt P01248 27-216, looked up)
Somatotropin: FPAMPLSSLFANAVLRAQHLHQLAADTYKEFERAYIPEGQRYSIQNAQAAFCFSETIPAPTGKDEAQQRSDVELLRFSLLLIQSWLGPVQFLSRVFTNSLVFGTSDRVYEKLKDLEEGIQALMRELEDGSPRAGQILKQTYDKFDTNLRSDDALLKNYGLLSCFKKDLHKAETYLRVMKCRRFVESSCAF
With B2, in the data set with young swine, the growth rates entry is recorded as “increased growth rates”.
